According to PMC4357719, “Roles of Rad51 paralogs for promoting homologous recombination in Leishmania infantum”:

B1: splayed arm (JYM925/JYM926) (structured_DNA)
DNA 1: GGGTGAACCTGCAGGTGGGCAAAGATGTCCTAGCAATGTAATCGTCAAGCTTTATGCCGT
DNA 2: ACGCTGCCGAATTCTACCAGTGCCAGCGACGGACATCTTTGCCCACCTGCAGGTTCACCC
B2: D-loop (JYM1395/JYM1396/JYM1745) (structured_DNA)
DNA 1: GCCAGGGACGGGGTGAACCTGCAGGTGGGCGGCTGCTCATCGTAGGTTAGTATCGACCTATTGGTAGAATTCGGCAGCGTCATGCGACGGC
DNA 2: GCCGTCGCATGACGCTGCCGAATTCTACCACGCTACTAGGGTGCCTTGCTAGGACATCTTTGCCCACCTGCAGGTTCACCCCGTCCCTGGC
DNA 3: AAGATGTCCTAGCAAGGCACCCTAGTAGC

How the values were obtained:
[1] = biological target: T1, LiRad51-3 (in 3-4-6 complex);LiRad51-4 (in 3-4-6 complex);LiRad51-6 (in 3-4-6 complex) (Leishmania infantum;Leishmania …, UniProt E9AHR7;A4HUT5;A4I499 1-687;1-518;1-649, ||); assay: competition EMSA; 0-40 nM complex; mixture; 25 mM MOPS pH 7.0, 0.2% Tween-20, 1 mM CaCl2, 2 mM DTT; 25 nM 32P-DNA; 37 C 10 min, then 0.2% glutaraldehyde 15 min; 8% TBE acrylamide gel; conditions: protein: recombinant;recombinant;recombinant; copies: 1;1;1; label: 32P on strand 1; fork 1:2
[2] = biological target: T1, LiRad51-3 (in 3-4-6 complex);LiRad51-4 …; assay: competition EMSA; 0-40 nM complex; preferred substrate in mixture; 25 mM MOPS pH 7.0, 0.2% Tween-20, 1 mM CaCl2, 2 mM DTT; 25 nM 32P-DNA; 37 C 10 min, then 0.2% glutaraldehyde 15 min; 8% TBE acrylamide gel; conditions: protein: recombinant;recombinant;recombinant; copies: 1;1;1; label: 32P on strand 3 (JYM1745); D-loop: 1:2 with unpaired bubble, 3 paired to 2 in the bubble

Binder | binding result [1] | binding result [2]
B1 | binds | 
B2 |  | binds
